The values below come from patent publication CN111705065A.

The target of this experiment is 重组KRAS突变体蛋白 (KRAS Mut). Put plainly: indirect ELISA, KRAS Mut coated at 1 μg/mL, antibody diluted 1:10^3 to 1:10^6, HRP goat anti-mouse, OD450.
重组KRAS突变体蛋白 (KRAS Mut), sequence (chain, as listed by the source limits assumed): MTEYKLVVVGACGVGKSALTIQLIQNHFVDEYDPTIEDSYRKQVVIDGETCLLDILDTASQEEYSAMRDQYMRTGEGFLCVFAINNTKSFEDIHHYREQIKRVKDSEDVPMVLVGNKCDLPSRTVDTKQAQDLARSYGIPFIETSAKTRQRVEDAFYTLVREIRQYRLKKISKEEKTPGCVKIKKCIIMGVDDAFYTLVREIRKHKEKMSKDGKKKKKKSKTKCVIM

B1: 抗KRAS突变体单克隆抗体 KRAS Mut mAb (antibody, V domains shown)
VH: QIQLQESGPGLVKPSQSLSLTCTVTGYSITSDYAWNWIRQFPGNKLEWMGYINYSGSTSYNPSLKSRISITRDTSKNQFFLQLISVTSEDTATYYCAGSGYVRGFAYWGQGTLVTVSA
VL: DICKTQSHKFMSTSVGDRVSITCKASQDVGTAVAWYQQKPGQSPKLLIYWASTRHTGVPDRFTGSESGTDFTLTISNVQSEDLADYFCQQYSSYPYTFGGGTKLEIKR
The molecule B1 yielded a 效价 (ELISA titer) (dilution factor (1:x)) of 100000.
